Earlier results on one substance are cited in article PMC8217106.

In general, Kd refers to a measure of binding affinity in units of concentration.

The data set addresses BCL9 (Homo sapiens) (UniProt O00512).
Chain of UniProt O00512 (O00512 whole entry): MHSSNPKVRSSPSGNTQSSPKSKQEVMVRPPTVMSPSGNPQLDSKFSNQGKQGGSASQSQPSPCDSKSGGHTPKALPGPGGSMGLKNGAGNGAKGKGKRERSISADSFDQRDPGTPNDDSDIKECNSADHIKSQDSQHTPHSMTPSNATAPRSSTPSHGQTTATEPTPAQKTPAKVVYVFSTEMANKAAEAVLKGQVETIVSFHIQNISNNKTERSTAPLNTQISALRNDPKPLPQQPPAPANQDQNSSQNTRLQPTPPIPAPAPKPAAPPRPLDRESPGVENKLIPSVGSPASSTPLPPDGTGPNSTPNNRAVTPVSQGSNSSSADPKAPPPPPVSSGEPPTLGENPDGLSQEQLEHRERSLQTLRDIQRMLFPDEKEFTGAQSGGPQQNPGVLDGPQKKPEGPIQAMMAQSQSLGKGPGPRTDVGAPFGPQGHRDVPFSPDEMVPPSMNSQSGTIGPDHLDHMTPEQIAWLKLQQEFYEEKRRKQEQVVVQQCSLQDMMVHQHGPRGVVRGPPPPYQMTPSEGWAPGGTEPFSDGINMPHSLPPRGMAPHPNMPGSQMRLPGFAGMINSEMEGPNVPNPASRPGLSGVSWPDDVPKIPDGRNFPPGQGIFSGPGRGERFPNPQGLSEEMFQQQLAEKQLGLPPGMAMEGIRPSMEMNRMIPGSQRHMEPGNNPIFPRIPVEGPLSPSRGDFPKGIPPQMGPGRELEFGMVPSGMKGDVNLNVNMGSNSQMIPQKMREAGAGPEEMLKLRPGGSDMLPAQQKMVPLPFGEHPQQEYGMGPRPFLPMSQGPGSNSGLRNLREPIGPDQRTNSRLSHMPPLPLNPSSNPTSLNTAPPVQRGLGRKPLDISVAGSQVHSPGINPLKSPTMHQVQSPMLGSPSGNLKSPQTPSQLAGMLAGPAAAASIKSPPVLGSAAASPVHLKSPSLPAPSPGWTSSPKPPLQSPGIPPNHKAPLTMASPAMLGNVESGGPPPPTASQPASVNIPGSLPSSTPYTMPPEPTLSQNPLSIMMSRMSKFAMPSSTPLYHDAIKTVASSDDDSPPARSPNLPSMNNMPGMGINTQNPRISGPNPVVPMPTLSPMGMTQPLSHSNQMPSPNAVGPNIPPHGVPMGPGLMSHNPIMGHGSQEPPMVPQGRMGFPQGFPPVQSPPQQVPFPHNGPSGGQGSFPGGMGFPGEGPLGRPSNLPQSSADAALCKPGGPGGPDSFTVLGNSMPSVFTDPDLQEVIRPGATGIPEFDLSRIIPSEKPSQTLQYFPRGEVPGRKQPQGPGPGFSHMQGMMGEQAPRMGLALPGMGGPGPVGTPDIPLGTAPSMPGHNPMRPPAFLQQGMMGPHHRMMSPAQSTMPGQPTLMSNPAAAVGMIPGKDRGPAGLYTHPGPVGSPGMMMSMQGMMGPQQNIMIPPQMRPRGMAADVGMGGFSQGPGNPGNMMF

β-catenin (from UniProt P35222): the Kd is 0.47 µM.
